{"source": "paper doi:10.1101/2020.11.12.379867", "target": "GST-STG^9D (GST-fused C-terminus of STG with nine serine residues replaced with aspartate)", "assay": "pull-down"}
{"binder": "flag-tagged μ3 subunit of the adaptor protein AP-3 (μ3A) (natural protein) MIHSLFLINCSGDIFLEKHWKSVVSQSVCDYFFEAQEKAADVENVPPVISTPHHYLISIYRDKLFFVSVIQTEVPPLFVIEFLHRVADTFQDYFGECSEAAIKDNVVIVYELLEEMLDNGFPLATESNILKELIKPPTILRSVVNSITGSSNVGDTLPTGQLSNIPWRRAGVKYTNNEAYFDVVEEIDAIIDKSGSTVFAEIQGVIDACIKLSGMPDLSLSFMNPRLLDDVSFHPCIRFKRWESERVLSFIPPDGNFRLISYRVSSQNLVAIPVYVKHSISFKENSSCGRFDITIGPKQNMGKTIEGITVTVHMPKVVLNMNLTPTQGSYTFDPVTKVLAWDVGKITPQKLPSLKGLVNLQSGAPKPEENPNLNIQFKIQQLAISGLKVNRLDMYGEKYKPFKGVKYVTKAGKFQVRT", "values": [{"measurement": "amount of μ3 pulled down (STG^9A = 100%)", "value": 21, "unit": "%"}]}
